Test results reported in patent publication US20250340649A1 (RUTGERS THE STATE UNIVERSITY OF NEW JERSEY, published 2025).
Where two headings read alike, the source gives them in different places.

B1: A1 anti-HER2 VHH (VHH)
VHH: QVQLQESGGGLVQPGGSLRLSCAASGHTLSTYVVAWFRQAPGKERESVAAIGWSSRSPYYPDSVKGRFTISEDNTKNTVYLQMNSLKPDDTAVYYCAADSYPRRWDRESDFGSWGQGTQVTVSS
notes: Llama VHH expressed in WK6 E. coli with C-terminal c-myc and His tags; also called A1 clone
B2: E5 anti-HER2 VHH (VHH)
VHH: QVQLQESGGGLVQAGGSLRLDCAASGRTLSSYVVGWFRQAPGKEREVVAAIGWSRTSTFYTDSVKGRFTISRDNTENTVYLQMNSLKPGDTAVYYCAADSSPRRWDRESDFGSWGQGTQVTVSS
notes: also called E5 clone

What was measured:
[1] = molecular target: T1, Biotinylated Human Her2/ErbB2 Protein, His, Avitag (AcroBiosystem HE2-H82E2) (human, UniProt P04626 23-652, biotinylated (Avitag)); assay: BLI (Octet), biotinylated HER2 on streptavidin sensor
T1 construct: Bought protein; Loaded on streptavidin sensors for BLI; also called biotinylated HER2; HER2 antigen

[2] = molecular target: T2, HER2 on the surface of HER2+ cancer cells (BT474, SKOV-3) (human, UniProt P04626 23-1255); assay: flow cytometry on BT-474 cells (HER2+), 100 nM binding sites
T2 construct: whole, on cells; also called human epidermal growth factor receptor 2
Method: (§1) OVASC-1 is an ascites-derived epithelial ovarian cancer cells obtained from a patient with advanced metastatic disease (11, 12). The expressed VHHs were then incubated with HER2⁺ (BT474, JIMT-1, and SKOV-3) and HER2⁻ (MDA-MB-231) cancer cell lines. Approximately 10⁶ cells were counted and washed using DPBS-1% FBS. […] After washing, FITC-conjugated anti-Human IgG or anti-Histag antibody were added and incubated on ice for 60 min. Cells were washed three times and then analyzed using Beckman-Coulter Gallios flow cytometer at Rutgers Flow cytometry core facility.
(§2) In the next step, the ability of the VHHs to recognize and bind to HER2 on the surface of HER2+ cancer cells was evaluated. […] MDA-MB-231 and OVASC-1 (HER2⁻) cancer cells were used as negative controls.

[3] = molecular target: T2, HER2 on the surface of HER2+ cancer …; assay: flow cytometry on SKOV-3 cells (HER2+), 100 nM binding sites
Method: as §1, §2

[4] = molecular target: T3, HER1 (human, UniProt P00533 25-645); assay: ELISA, periplasmic extract on coated antigen, anti-HA-HRP
T3 construct: The text says only 'HER1'; also called Recombinant human EGFR protein (Fc Chimera), Abcam ab155726; Fc part of the bought chimera not given
Text: (§3) FIGS. 4A-4B. FIG. 4A) PBMCs were isolated using Ficoll-Paque method. Then, the RNAs were extracted, cDNA library was generated, genes amplified, and then cloned into pMECS-GG phagemids. The phagemids were used in phage display and the screened candidates were used to infect TG1 bacteria. Colonies were selected, grown, lysed, and the lysates removed. FIG. 4B) The lysates were then used in ELISA to screen for VHHs with the highest affinity to HER2 and with negligible binding to HER1, HER3, and HER4. Bovine serum albumin (BSA) and skim milk were used as controls.
(§4) The next day, each well was washed three times with washing buffer (DPBS+0.1% Tween 20) and then incubated with blocking buffer (2% skimmed milk) for 2 h at RT to block the free binding sites. Next, blocking buffer was replaced with 100 μL of periplasmic extract from above and incubated for 1 h at RT while shaking at 700 rpm. Each well was washed six times with washing buffer (DPBS+0.1% Tween 20) followed by addition of 100 μL HRP Anti-HA tag antibody (1:10000 dilution) and incubation for 1 h at RT while shaking at 700 rpm. Each well was washed again six times, followed by addition of 50 μL 1-Step™ Turbo TMB-ELISA substrate solution at incubation at RT for 15 min (without shaking and at dark). The reaction was stopped by adding 50 μL of stop solution ([…] sulfuric acid) and the plate was read at 450 nm using 630 nm as a reference (450/630 nm).

[5] = molecular target: T4, HER3 (human, UniProt P21860 20-643, limits assumed); assay: as above
T4 construct: also called Recombinant Human ErbB 3 protein, Abcam ab196072
Text: as §3, §4

[6] = molecular target: T5, Bovine serum albumin (bovine, UniProt P02769 25-607); assay: as above
T5 construct: Control antigen; also called BSA
T5 sequence (P02769 25-607 limits assumed): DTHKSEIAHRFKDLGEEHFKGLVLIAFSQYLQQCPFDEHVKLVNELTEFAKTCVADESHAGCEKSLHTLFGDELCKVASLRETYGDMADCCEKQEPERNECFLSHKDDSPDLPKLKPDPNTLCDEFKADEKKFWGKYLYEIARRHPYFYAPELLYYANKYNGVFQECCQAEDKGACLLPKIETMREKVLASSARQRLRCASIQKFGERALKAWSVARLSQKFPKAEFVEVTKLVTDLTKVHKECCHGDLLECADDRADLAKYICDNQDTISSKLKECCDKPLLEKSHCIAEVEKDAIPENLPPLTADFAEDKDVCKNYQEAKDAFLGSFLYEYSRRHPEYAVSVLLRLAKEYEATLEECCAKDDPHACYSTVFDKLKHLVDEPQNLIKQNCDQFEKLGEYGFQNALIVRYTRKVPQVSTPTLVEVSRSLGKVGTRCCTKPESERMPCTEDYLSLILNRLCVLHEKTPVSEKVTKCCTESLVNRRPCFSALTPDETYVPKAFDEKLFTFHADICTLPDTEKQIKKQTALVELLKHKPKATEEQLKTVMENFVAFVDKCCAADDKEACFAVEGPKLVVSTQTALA
Text: as §3, §4

[7] = molecular target: T1, Biotinylated Human Her2/ErbB2 Protein, …; assay: BLI (Octet), biotinylated HER2 on streptavidin sensor, VHH 1.875-60 nM
[8] = molecular target: T1, Biotinylated Human Her2/ErbB2 Protein, …; assay: as above; remark: listed apart in the source
[9] = molecular target: T2, HER2 on the surface of HER2+ cancer …; assay: flow cytometry, SKOV-3 (HER2+) cells, tenfold dilutions 0.001-1000 nM
[10] = molecular target: T1, Biotinylated Human Her2/ErbB2 Protein, …; assay: ELISA on HER2, tenfold dilutions 0-1000 nM; the HER2 form is not stated for this ELISA, Table 17 lists only the biotinylated HER2

Row | Binder | Kd [1] | FITC+ (%) [2] | FITC- (%) [2] | Mean (MFI) [2] | FITC+ (%) [3] | FITC- (%) [3] | Mean (MFI) [3] | binding result [4] | binding result [5] | binding result [6] | Kd [7] | koff [7] | kon [7] | koff [8] | kon [8] | EC50 (read off the curve) [9] | EC50 (read off the curve) [10]
1 | B1 | 1.3 nM | 98.8% | 1.23% | 97000 | 94.1% | 5.78% | 101000 | no binding (tested: extract, conc. not given) | no binding (tested: extract, conc. not given) | no binding (tested: extract, conc. not given) | 1.32 nM | 0.000411 s⁻¹ | 309000 M⁻¹ s⁻¹ |  |  |  | 
2 | B2 | 0.724 nM | 98.4% | 1.59% | 102000 | 93.3% | 6.45% | 106000 | no binding (tested: extract, conc. not given) | no binding (tested: extract, conc. not given) | no binding (tested: extract, conc. not given) |  |  |  | 0.000702 s⁻¹ | 969000 M⁻¹ s⁻¹ | ~1 nM | ~0.3 nM
